Experimental data published in article PMC5587908.
“And” between values parts separate entries of the source, which are not always exact repeats. Identical values can stand only once.

What was measured:
[1] = molecular target: human plasminogen (Plg); experiment: ELISA; set-up: dose or concentration left out as unconfirmed; details: FnBPB proteins immobilized on microtiter wells, read off a plot
[2] = molecular target: full-length FnBPB on S. aureus FnBPB^(+) cells (S. aureus strain 8325-4); experiment: single-molecule force spectroscopy (AFM); Fg tips against living FnBPB^(+) cells; PBS, contact time 100 ms, applied force 250 pN, speed 1,000 nm s^-1
[3] = molecular target: full-length FnBPB on S. aureus FnBPB^(+) cells (S. aureus strain 8325-4); experiment: single-molecule force spectroscopy (AFM); as a7, in the presence of 0.1 mg ml^-1 Fg in the AFM chamber
[4] = molecular target: full-length FnBPB on S. aureus FnBPB^(+) cells (S. aureus strain 8325-4); experiment: single-cell force spectroscopy (AFM); single living S. aureus cell on a polydopamine-coated colloidal cantilever against Plg coupled to a gold substrate (NHS/EDC); PBS, 20°C, contact time 1 s, applied force 250 pN, speed 1,000 nm s^-1; without Fg
[5] = molecular target: full-length FnBPB on S. aureus FnBPB^(+) cells (S. aureus strain 8325-4); experiment: single-cell force spectroscopy (AFM); as a5, in the presence of 0.1 mg ml^-1 Fg in the AFM chamber
[6] = molecular target: full-length FnBPB on S. aureus FnBPB^(+) cells (S. aureus strain 8325-4); experiment: single-molecule force spectroscopy (AFM); Plg on the AFM tip (PEG-benzaldehyde linker) against living S. aureus cells trapped in porous membranes; PBS, 20°C, contact time 250 ms, applied force 250 pN, speed 1,000 nm s^-1; without Fg
[7] = molecular target: FnBPA (194-511), FnBPA_(N2N3) (S. aureus) (UniProt P14738); experiment: ELISA; FnBPA_(N2N3) or FnBPB_(N2N3) coated on microtiter wells (200 ng/well, 0.1 M sodium carbonate pH 9.5), increasing concentrations of Plg for 1 h; bound Plg detected with rabbit anti-Plg and HRP goat anti-rabbit IgG; Kd from the Plg saturation kinetics
[8] = molecular target: FnBPB (163-480), FnBPB_(N2N3) (S. aureus); experiment: as above

In the case of “FnBPB (163-480), FnBPB_(N2N3) (from UniProt A0A0H2XKG3) N312A; F314A”, the response ([1]; + Fg (black bar), saturating amounts of Fg, bound Plg detected with rabbit antibodies followed by HRP-con, parent: est. 1.5) is reported as 1.5 A490nm and the response ([1]; - Fg (white bar), bound Plg detected with rabbit antibodies followed by HRP-conjugated goat anti-rabbit IgG, parent: est. 1.6) is reported as 1.5 A490nm.
With “human fibrinogen (Fg) (from UniProt P02671 36-866; P02675 45-491; P02679 27-453) (complex)” the adhesion force (single molecule, cell 1) [2] was 1970 pN, the adhesion force (single molecule, cell 2) [2] was 1690 pN and the adhesion force (single molecule, cell 3) [2] was 1960 pN.
“human plasminogen (Plg) (natural protein)” showed a binding force (cell 1, with 0.1 mg/ml Fg) [3] of 898 pN, a binding force (cell 2, with 0.1 mg/ml Fg) [3] of 619 pN and a binding force (cell 3, with 0.1 mg/ml Fg) [3] of 561 pN. It also gave a binding probability (cell 1, with 0.1 mg/ml Fg) [3] of 81%, a binding probability (cell 2, with 0.1 mg/ml Fg) [3] of 79% and a binding probability (cell 3, with 0.1 mg/ml Fg) [3] of 73%. The adhesion force (single cell, cell 1) [4] was 556 pN, the adhesion force (single cell, cell 2) [4] was 249 pN and the adhesion force (single cell, cell 2, a few curves) [4] was 1630 pN. The adhesion force (single cell, cell 3) [4] was 1600 pN, the maximum adhesion force (single cell, cells 2 and 3) [4] was 1500 pN and 2000 pN and the mean adhesion force (single cell, 3 cells) [4] was 775 pN. It also gave a mean adhesion force (single cell, 3 cells, with 0.1 mg/ml Fg) [5] of 2100 pN, an adhesion force (single molecule) [6] of 188 pN and an adhesion frequency [6] of 40%. The binding force (cell 1) [6] was 175 pN, the binding force (cell 2) [6] was 154 pN and the binding force (cell 3) [6] was 176 pN. It also gave a binding probability (cell 1) [6] of 67%, a binding probability (cell 2) [6] of 24% and a binding probability (cell 3) [6] of 42%. The Kd [7] was 600 nM and the Kd [8] was 380 nM.
